Reference: patent US20190248902A1 (published 2019)

T1: recombinant, soluble human ASGR-1 (human, UniProt P07306 62-291)
T1 construct: biotinylated in the binning assay; also called soluble huASGR-1; Soluble ASGR-1 (Amgen)
T1 sequence: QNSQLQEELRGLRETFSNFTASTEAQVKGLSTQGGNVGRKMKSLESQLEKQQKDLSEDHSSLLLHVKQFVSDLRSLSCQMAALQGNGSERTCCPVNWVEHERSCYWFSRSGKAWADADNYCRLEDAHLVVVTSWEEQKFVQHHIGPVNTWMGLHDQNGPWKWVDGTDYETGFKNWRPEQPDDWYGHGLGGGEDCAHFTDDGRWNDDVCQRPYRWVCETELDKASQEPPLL

B1: 4A2 (antibody, V domains shown)
VH: QVQLVQSGTEVKKPGASVKVSCKASGYTFTNYDINWVRQATGQGLEWMGWMHPNSGNTGYAQKFQGRVTLTRNTSISTAYMELSSLRSEDTAVYYCASSSGWYYFDYWGQGTLVTVSS
VL: DIVMTQSPDSLAVSLGERATINCKSSQSILHSSNNNNYLAWFQQKPGQPPKLLLYWASTRESGVPDRFSGSGSGTDFTLTISSLQPEDVAVYYCQQYYNTPVTFGPGTKVGIK
notes: hybridoma mAb
B2: 65E9 (antibody, V domains shown)
VH: not shown
VL: SYELTQPPSVSVSPGQTASITCSGDKLGNKYDYWYQQKPGQSPVLVIYQDRKRPSGIPERFSGSNSGNTATLTISGTQAMDEADYYCQAWDNSTVVFGGGTKLTVL
notes: hybridoma mAb
B3: 32D6 (antibody, V domains shown)
VH: QVQLVESGGGVVQPGRSLRLSCAASGFTFSSYGMHWVRQAPGKGLEWVTVIWHDGSNAYYADSVKGRFTISRDNSKNTLYLQMNSLRAEDTAVYYCARENSSSYYFDYWGQGTLVTVSS
VL: DIQMTQSPSSLSTSVGDRVTITCRASQNIISYLNWYQQKPGKAPKLLMYVASRLQSGVPSRFSGSGSGTDFTLTISSLQAEDFATYYCQQSYSTPYTFGGGTKVAIK
notes: hybridoma mAb
B4: 5E5 (antibody, V domains shown)
VH: QVQLVESGGGVVQPGRSLRLSCAASGFTFSNYVMHWVRQAPGKGLEWVAVIWYDGSNKYYADSVKGRFTISRDNSKNTLYLQMNSLRAEDTAVYYCTREVYSSGWYDYGMDVWGQGTTVTVSS
VL: DIQMTQSPSSLSASVGDRVTITCRASQGIRNDLGWYQQKPGKAPKRLIYAASSLQSGVPSRFSGSGSGTEFTLTISSLQPEDFATYYCLQHYSYPRTFGQGTKVEVK
notes: hybridoma mAb
B5: 7G4 (antibody, V domains shown)
VH: QVQLVESGGGVVQPGRSLRLSCAASGFTFNNYVMHWVRQAPGKGLEWVAVIWYDGSNKYYADSVKGRFTISRDNSKNTLYLQMTSLRAEDTAVYYCAREKYSSNWYDYGMDVWGQGTTVTVSS
VL: DIQMTQSPSSLSASVGDRVTITCRASQGIRNDLGWYQQRPGKAPKRLIYAASSLQSGVPSRFSGSGSGTEFTLTISSLQPEDSATYYCLHQYSYPRTFGQGTKVEIK
notes: hybridoma mAb
B6: 45B4 (antibody, V domains shown)
VH: QVQLVESGGGVVQPGRSLRLSCAASGFTFSDCVMHWVRQAPGKGLEWVAVIWYDGSNKYYADSVKGRFTISRDNSKNTLYLQMNSLRAEDTAVYYCARERYSSGLYDYGMDVWGQGTTVTVSS
VL: DIQMTQSPSSLSASVGDRVTFTCRASQGIRDDLGWYQQKPGKAPKRLIYAASSLQSGVPSRFSGSGSGTEFTLTISSLQPEDFATYYCLQHYSYPRTFGQGTKVEIK
notes: hybridoma mAb
B7: 29E2 (antibody, V domains shown)
VH: QVQLVESGGGVVQPGRSLRLSCAASGFTFSNCVMHWVRQAPGKGLEWVAVIWYDGSNKYYADSVKGRITISRDNSKNTLYLQMNSLRAEDTAVYYCAREEYSSGWYDYGMDVWGQGTTVTVSS
VL: DIQMTQSPSSLSASVGDRVTITCRASQAIRNDLGWYQQRPGKAPKRLIYAASSLQSGVPSRFSGSGSGTEFILTISSLQPEDFATYYCLQHYNYPRSFGQGTKLEIK
notes: hybridoma mAb

Columns and labels:
[1] = target: T1, recombinant, soluble human ASGR-1; experiment: Octet BLI dissociation, pH 5.6 plus calcium
Procedure: (§1) The relative dissociation of ASGR-1 from antibodies was measured using a label-free assay on an OctetHTX instrument (Fortebio). Antibody samples were captured on anti-HuFc kinetic biosensors (ForteBio cat #18-5064) at 5 ug/mL in assay buffer (10 mM Tris, 0.1% Triton, 150 mM NaCl, 1 mg/mL BSA, 1 mM CaCl2, pH7.4) for three minutes. A one minute baseline stabilization step was performed in assay buffer. Soluble ASGR-1 (Amgen) at 6 ug/ml in assay buffer was added and association to the antibodies was monitored for two minutes. Subsequent dissociation of ASGR-1 from the antibodies was performed by incubating the ASGR-1-mAb complexes for 10 minutes under each of the following conditions:
(§2) The binding signal at the end of the 2 minute association phase for each dissociation experiment was set to 100% and used to represent the maximal level of ASGR-1 binding. After 1 minute of dissociation, the percentage of ASGR-1 remaining bound was calculated. The lower the percent remaining at a given time point indicates increased levels of dissociation in response to the test conditions (ie. different pH and/or calcium concentrations). The change in the percentage of ASGR-1 remaining bound in response to each test condition relative to the percent remaining in the control conditions (ie. pH 7.4+calcium) was determined. Cut-offs for an antibody to be categorized as being sensitive to a particular condition were set to >10% (ie. if >10% of the ASGR-1 dissociates from the antibody under a particular test condition compared to control condition, it was deemed sensitive to that condition). The analysis was done using the 1 minute dissociation time point (except for mAb 149A1 which was binned based on the 4 minute dissociation time point). Using this analysis, the ASGR-1-binding, receptor-ligand blocking antibodies were separated into groups according to their dissociation profiles in response to pH and calcium (Table 7.3). Antibodies belonging to each category were observed.

[2] = target: T1, recombinant, soluble human ASGR-1; experiment: Octet BLI dissociation, pH 5.6 minus calcium
Procedure: as §1, §2

[3] = target: T1, recombinant, soluble human ASGR-1; experiment: Octet BLI dissociation, pH 7.4 minus calcium
Procedure: as §1, §2

| Binder | % Change Compared to pH 7.4 + Calcium [1] [%] | % Change Compared to pH 7.4 + Calcium [2] [%] | % Change Compared to pH 7.4 + Calcium [3] [%] |
| --- | --- | --- | --- |
| B1 | -3 | 1 | 1 |
| B2 | 30 | 35 | 22 |
| B3 | 33 | 55 | 26 |
| B4 | 18 | 42 | 7 |
| B5 | 1 | 7 | 2 |
| B6 | 10 | 23 | 4 |
| B7 | 25 | 38 | 5 |
